Source: patent publication US20230194547A1 (Hoffmann-La Roche, published 2023)

B1: anti-human phospho tau 422 antibody, labelled with pHAb dye (antibody, human IgG1, kappa, L234A L235A)
heavy: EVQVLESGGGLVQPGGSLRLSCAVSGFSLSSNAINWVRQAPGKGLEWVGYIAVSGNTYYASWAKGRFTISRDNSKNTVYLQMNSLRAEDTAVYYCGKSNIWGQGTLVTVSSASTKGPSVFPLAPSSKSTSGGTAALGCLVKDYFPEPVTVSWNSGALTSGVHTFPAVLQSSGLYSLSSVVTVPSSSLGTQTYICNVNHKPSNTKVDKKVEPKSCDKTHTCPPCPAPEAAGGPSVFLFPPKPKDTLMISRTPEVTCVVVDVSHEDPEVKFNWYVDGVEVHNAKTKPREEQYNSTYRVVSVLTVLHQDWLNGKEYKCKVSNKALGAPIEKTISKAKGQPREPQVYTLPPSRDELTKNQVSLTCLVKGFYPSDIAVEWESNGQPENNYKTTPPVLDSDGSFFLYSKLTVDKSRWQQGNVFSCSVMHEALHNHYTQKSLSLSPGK
light: AQVMTQSPSSLSASVGDRVTITCRSSQSVRTNRLAWFQQKPGQPPKRLIYSASTLDYGVPSRFSGSGSGTEFTLTISSLQPEDFATYYCLGYFDSSADIVAFGGGTKVEIKRTVAAPSVFIFPPSDEQLKSGTASVVCLLNNFYPREAKVQWKVDNALQSGNSQESVTEQDSKDSTYSLSSTLTLSKADYEKHKVYACEVTHQGLSSPVTKSFNRGEC
modifications: pHAb dye on a sulfo DBCO-PEG4-amine linker, clicked to the azide-modified N-glycan of the Fc-region
notes: also called anti-pTau antibody; anti-human p(422)Tau antibody
B2: anti-human phospho tau 422 antibody (antibody, human IgG1, kappa, L234A L235A)
heavy: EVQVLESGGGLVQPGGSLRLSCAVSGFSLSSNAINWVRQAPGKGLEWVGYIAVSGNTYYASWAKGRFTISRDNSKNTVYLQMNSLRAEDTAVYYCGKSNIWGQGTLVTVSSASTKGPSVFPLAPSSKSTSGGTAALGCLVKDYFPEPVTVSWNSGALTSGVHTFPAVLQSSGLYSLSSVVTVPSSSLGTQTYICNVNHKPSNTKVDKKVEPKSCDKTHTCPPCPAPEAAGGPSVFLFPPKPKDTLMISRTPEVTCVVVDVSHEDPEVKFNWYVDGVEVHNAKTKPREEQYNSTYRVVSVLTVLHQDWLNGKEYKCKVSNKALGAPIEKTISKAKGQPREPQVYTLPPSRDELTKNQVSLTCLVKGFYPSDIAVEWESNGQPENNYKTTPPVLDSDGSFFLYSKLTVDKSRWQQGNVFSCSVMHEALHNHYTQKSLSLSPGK
light: B1 light
notes: IgG1, unlabelled; also called anti-pTau antibody; anti-human p(422)Tau antibody
B3: Ixekizumab (antibody)
chain 1: not shown
chain 2: DIVMTQTPLSLSVTPGQPASISCRSSRSLVHSRGNTYLHWYLQKPGQSPQLLIYKVSNRFIGVPDRFSGSGSGTDFTLKISRVEAEDVGVYYCSQSTHLPFTFGQGTKLEIKRTVAAPSVFIFPPSDEQLKSGTASVVCLLNNFYPREAKVQWKVDNALQSGNSQESVTEQDSKDSTYSLSSTLTLSKADYEKHKVYACEVTHQGLSSPVTKSFNRGEC
B4: Vedolizumab (antibody)
chain 1: not shown
chain 2: DVVMTQSPLSLPVTPGEPASISCRSSQSLAKSYGNTYLSWYLQKPGQSPQLLIYGISNRFSGVPDRFSGSGSGTDFTLKISRVEAEDVGVYYCLQGTHQPYTFGQGTKVEIKRTVAAPSVFIFPPSDEQLKSGTASVVCLLNNFYPREAKVQWKVDNALQSGNSQESVTEQDSKDSTYSLSSTLTLSKADYEKHKVYACEVTHQGLSSPVTKSFNRGEC

Columns and labels:
[1] = target: T1, human FcRn beta-2-microglobulin complex, biotinylated, coupled to streptavidin Sepharose (human, UniProt P55899 24-297; P61769 21-119, limits assumed, biotinylated (Bulk BIRA kit, Avidity)); experiment: FcRn affinity chromatography, pH gradient 5.5 to 8.8; dye-labelled antibody
T1 construct: Secreted complex purified from the supernatant; also called neonatal Fc receptor; human FcRn chromatography column
Experimental: (§1) The UV light absorption at a wavelength of 280 nm was used for detection. The column was regenerated for 10 minutes using 20% buffer B after each run.

[2] = target: T1, human FcRn beta-2-microglobulin …; experiment: FcRn affinity chromatography, pH gradient 5.5 to 8.8; unlabelled antibody
Experimental: as §1

T1 sequence (P55899 24-297 limits assumed, chain 1 of 2): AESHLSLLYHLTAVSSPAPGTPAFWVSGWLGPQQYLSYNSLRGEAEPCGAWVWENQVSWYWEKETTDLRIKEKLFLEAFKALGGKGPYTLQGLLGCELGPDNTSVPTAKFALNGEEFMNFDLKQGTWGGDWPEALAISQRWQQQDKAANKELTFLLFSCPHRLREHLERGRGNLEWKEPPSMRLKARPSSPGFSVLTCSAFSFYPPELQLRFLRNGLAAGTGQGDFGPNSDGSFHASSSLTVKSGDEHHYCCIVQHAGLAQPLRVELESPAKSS
T1 sequence (P61769 21-119 limits assumed, chain 2 of 2): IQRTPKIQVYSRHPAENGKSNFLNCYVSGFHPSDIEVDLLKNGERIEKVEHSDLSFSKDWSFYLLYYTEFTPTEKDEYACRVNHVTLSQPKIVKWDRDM

Binder | relative retention time on FcRn affinity column [1] | relative retention time on FcRn affinity column [2]
B1 | 1.18 relative to anti-Her3 antibody standard | 
B2 |  | 1.13 relative to anti-Her3 antibody standard
B3 |  | 1.42 relative to anti-Her3 antibody standard
B4 |  | 0.33 relative to anti-Her3 antibody standard
